# Reference: patent publication US8563520B2, “Treatment of ocular disease with inhibitors of alpha2 macroglobulin protein” (McGill University, priority 2005, dated 2013)
# Read-outs that look alike come from different tables or passages of the source.
# B1: α2m: α2 macroglobulin protein injected intraocularly into normal rat eyes (protein, UniProt P06238 28-1472, looked up)
# Alpha-2-macroglobulin: SAPQKPIYMVMVPSLLHAGTPEKACFLFSHLNETVAVRVSLESVRGNQSLFTDLVVDKDLFHCTSFTVPQSSSDEVMFFTVQVKGATHEFRRRSTVLVKKKESLVFAQTDKPIYKPGQTVRFRVVSLDESFHPLNELIPLLYIQDPKNNRIAQWQNFNLEGGLKQLSFPLSSEPTQGSYKVVIRTESGRTVEHPFSVEEFVLPKFEVRVTVPETITILEEEMNVSVCGIYTYGKPVPGRVTVNICRKYSNPSNCFGEESVAFCEKLSQQLDGRGCFSQLVKTKSFQLKRQEYEMQLDVHAKIQEEGTGVEETGKGLTKITRTITKLSFVNVDSHFRQGIPFVGQVLLVDGRGTPIPYETIFIGADEANLYINTTTDKHGLARFSINTDDIMGTSLTVRAKYKDSNACYGFRWLTEENVEAWHTAYAVFSPSRSFLHLESLPDKLRCDQTLEVQAHYILNGEAMQELKELVFYYLMMAKGGIVRAGTHVLPLKQGQMRGHFSILISMETDLAPVARLVLYAILPNGEVVGDTAKYEIENCLANKVDLVFRPNSGLPATRALLSVMASPQSLCGLRAVDQSVLLMKPETELSASLIYDLLPVKDLTGFPQGADQREEDTNGCVKQNDTYINGILYSPVQNTNEEDMYGFLKDMGLKVFTNSNIRKPKVCERLRDNKGIPAAYHLVSQSHMDAFLESSESPTETRRSYFPETWIWDLVVVDSAGVAEVEVTVPDTITEWKAGAFCLSNDTGLGLSPVVQFQAFQPFFVELTMPYSVIRGEAFTLKATVLNYLPTCIRVAVQLEASPDFLAAPEEKEQRSHCICMNQRHTASWAVIPKSLGNVNFTVSAEALNSKELCGNEVPVVPEQGKKDTIIKSLLVEPEGLENEVTFNSLLCPMGAEVSELIALKLPSDVVEESARASVTVLGDILGSAMQNTQDLLKMPYGCGEQNMVLFAPNIYVLDYLNETQQLTQEIKTKAIAYLNTGYQRQLNYKHRDGSYSTFGDKPGRNHANTWLTAFVLKSFAQARKYIFIDEVHITQALLWLSQQQKDNGCFRSSGSLLNNAMKGGVEDEVTLSAYITIALLEMSLPVTHPVVRNALFCLDTAWKSARGGAGGSHVYTKALLAYAFALAGNQDTKKEILKSLDEEAVKEEDSVHWTRPQKPSVSVALWYQPQAPSAEVEMTAYVLLAYLTTEPAPTQEDLTAAMLIVKWLTKQQNSHGGFSSTQDTVVALHALSKYGSATFTRAKKAAQVTIHSSGTFSTKFQVNNNNQLLLQRVTLPTVPGDYTVKVTGEGCVYLQTSLKYSVLPREEEFPFTVVVQTLPGTCEDPKAHTSFQISLNISYTGSRSESNMAIADVKMVSGFIPLKPTVKMLERSVHVSRTEVSNNHVLIYLDKVSNQTVNLSFTVQQDIPIRDLKPAVVKVYDYYEKDEFAVAKYSAPCSTDYGNA
# Test system: Rat Retina
# Protocol: The following experiment was conducted in order to assess changes in gene expression induced in the retina after intraocular injection of α2 macroglobulin protein. 2 μg of α2 macroglobulin protein was intraocularly injected into the right eye of rats (n=3) and the left eye was used as a control. One rat was tested at Day 3, one rat was tested at Day 7 and one rat was tested at Day 14. Retinas were isolated and mRNA was collected. Samples from each of the rats were studied by gene microassays. Retinas were carefully dissected out to insure that only retinal mRNAs were prepared for gene microarray studies. Samples were obtained from control eyes.
# Total RNA was isolated from retinal tissue using TRIZOL® (Life Technologies). RNA was then further purified using the RNAEASY® (QIAGEN®). The integrity of the RNA samples was assessed by running aliquots on RNA 6000 Nano LabChip (Agilent) using the 2100 bioanalyzer (Agilent).
# Probe synthesis, hybridization and scanning were done according to Affymetrix protocol, as a service at the McGill University and Genome Quebec Innovation Centre. For the experiments shown, Rat U34 Genome Arrays (8,700 genes, Affymetrix) were used. Briefly, RNA samples were first converted to double stranded cDNA (T7-(dT)24 primer (Genset)). Then the cDNAs were purified and used to generate the biotinylated cRNA probes (Bioarray High Yield RNA transcript labeling kit (Enzo diagnostics)). An aliquot of the purified cRNA was analyzed on RNA 6000 Nano LabChip (Agilent) to verify the integrity and size distribution. Immediately after hybridization the chip was placed in the Affymetrix GeneChip Fluidics Station 400 (Affymetrix). In total, 10 low-stringency washes (63 SSPE, 0.01% Tween-20, 0.005% Antifoam) and 4 high-stringency washes (100 mM MES, 0.1 M NaCl, 0.01% Tween-20, 50 C) were performed (all reagents from Sigma). The array was then incubated with SAPE® (streptavidin/phycoerythrin stain, Molecular Probes), followed by 10 low stringency washes. The array was incubated with biotinylated anti-streptavidin antibody (Vector Laboratories) and washed again with 15 low stringency washes. Specifically bound probe was detected by placing the array in the Agilent GeneArray scanner 2500 (Affymetrix). The scanned images were analyzed using the Microarray Analysis Suite version 5.0 (Affymetrix).
# The fold change was analyzed by […] data for the control eye from the data on the eye injected with α2 macroglobulin. A fold change of 2 or greater indicates upregulation. A fold of 0.5 to 2 indicates no change. A fold change of 0.5 or less indicates downregulation.
# [1] = gene ADP-ribosylation factor guanine nucleotide-exchange factor 1 (1392282_at)
# [2] = gene Bone morphogenetic protein receptor, type 1A (1390398_at)
# [3] = gene CDNA clone IMAGE: 7321089 (1389986_at)
# [4] = gene CREB binding protein (1385852_at)
# [5] = gene Ewing sarcoma breakpoint region 1 (1378518_at)
# [6] = gene Exosome component 8 (predicted) (1386936_at)
# [7] = gene FERM domain containing 4B (1384681_at)
# [8] = gene Fc receptor, IgG, low affinity IIb (1371079_at)
# [9] = gene High density lipoprotein binding protein (1375309_at)
# [10] = gene RT1 class II, locus Ba (1370822_at)
# [11] = gene RT1 class II, locus Bb (1371033_at)
# [12] = gene RT1 class II, locus Da (1370883_at)
# [13] = gene RT1 class II, locus Db1 (1370383_s_at)
# [14] = gene S100 calcium binding protein A11 (calizzarin) (1375170_at)
# [15] = gene Similar to CG10084-PA (1394756_at)
# [16] = gene Similar to NICE-3 (1397412_at)
# [17] = gene Similar to expressed sequence AV312086 (predicted) (1390657_at)
# [18] = gene Similar to hypothetical protein D630010C10 (1385108_at)
# [19] = gene Thyroid hormone receptor interactor 12 (1380803_at)
# [20] = gene Transcribed locus (1381100_at)
# [21] = gene Transcribed locus (1382211_at)
# [22] = gene Transcribed locus (1382368_at)
# [23] = gene Transcribed locus (1382510_at)
# [24] = gene Transcribed locus (1384014_at)
# [25] = gene Transcribed locus (1385552_at)
# [26] = gene Transcribed locus (1391757_at)
# [27] = gene Transcribed locus (1392155_at)
# [28] = gene Transcribed locus (1392675_at)
# [29] = gene Transcribed locus (1395390_at)
# [30] = gene Transcribed locus (1397883_at)
# [31] = gene actin related protein 2/3 complex, subunit 1B (1386925_at)
# [32] = gene argininosuccinate synthetase (1370964_at)
# [33] = gene ash1 (absent, small, or homeotic)-like (Drosophila) (predicted) (1382862_at)
# [34] = gene cold inducible RNA binding protein (1382809_at)
# [35] = gene complement component 1, s subcomponent (1387893_at)
# [36] = gene complement component 3 (1368000_at)
# [37] = gene complement component 4a (1370892_at)
molecule,measurement,setting,value
B1,Fold Change (α2m vs normal) Day 3,[1],0.5
same,Fold Change (α2m vs normal) Day 7,[1],0.3
same,Fold Change (α2m vs normal) Day 3,[2],0.4
same,Fold Change (α2m vs normal) Day 7,[2],0.2
same,Fold Change (α2m vs normal) Day 14,[2],2.6
same,Fold Change (α2m vs normal) Day 3,gene CD74 antigen (1367679_at),10.1
same,Fold Change (α2m vs normal) Day 7,gene CD74 antigen (1367679_at),6.5
same,Fold Change (α2m vs normal) Day 3,[3],0.5
same,Fold Change (α2m vs normal) Day 7,[3],0.3
same,Fold Change (α2m vs normal) Day 14,[3],2.9
same,Fold Change (α2m vs normal) Day 3,[4],0.5
same,Fold Change (α2m vs normal) Day 7,[4],0.4
same,Fold Change (α2m vs normal) Day 3,[5],0.4
same,Fold Change (α2m vs normal) Day 7,[5],0.1
same,Fold Change (α2m vs normal) Day 3,[6],0.4
same,Fold Change (α2m vs normal) Day 7,[6],4.3
same,Fold Change (α2m vs normal) Day 14,[6],2.4
same,Fold Change (α2m vs normal) Day 3,[7],0.5
same,Fold Change (α2m vs normal) Day 7,[7],0.2
same,Fold Change (α2m vs normal) Day 14,[7],2.3
same,Fold Change (α2m vs normal) Day 3,[8],9.4
same,Fold Change (α2m vs normal) Day 7,[8],2.1
same,Fold Change (α2m vs normal) Day 3,[9],0.5
same,Fold Change (α2m vs normal) Day 7,[9],0.5
same,Fold Change (α2m vs normal) Day 3,gene LOC361776 (1373010_at),20.1
same,Fold Change (α2m vs normal) Day 7,gene LOC361776 (1373010_at),0.5
same,Fold Change (α2m vs normal) Day 3,[10],8.3
same,Fold Change (α2m vs normal) Day 7,[10],4.5
same,Fold Change (α2m vs normal) Day 3,[11],6.8
same,Fold Change (α2m vs normal) Day 7,[11],5.2
same,Fold Change (α2m vs normal) Day 3,[12],16.1
same,Fold Change (α2m vs normal) Day 7,[12],11.3
same,Fold Change (α2m vs normal) Day 3,[13],4.9
same,Fold Change (α2m vs normal) Day 7,[13],3.5
same,Fold Change (α2m vs normal) Day 3,[14],2.0
same,Fold Change (α2m vs normal) Day 7,[14],4.5
same,Fold Change (α2m vs normal) Day 3,[15],0.5
same,Fold Change (α2m vs normal) Day 7,[15],0.3
same,Fold Change (α2m vs normal) Day 14,[15],2.4
same,Fold Change (α2m vs normal) Day 3,[16],0.5
same,Fold Change (α2m vs normal) Day 7,[16],0.4
same,Fold Change (α2m vs normal) Day 14,[16],2.0
same,Fold Change (α2m vs normal) Day 3,[17],0.4
same,Fold Change (α2m vs normal) Day 7,[17],0.3
same,Fold Change (α2m vs normal) Day 3,[18],0.4
same,Fold Change (α2m vs normal) Day 7,[18],0.2
same,Fold Change (α2m vs normal) Day 3,[19],0.3
same,Fold Change (α2m vs normal) Day 7,[19],0.4
same,Fold Change (α2m vs normal) Day 3,[20],0.4
same,Fold Change (α2m vs normal) Day 7,[20],0.3
same,Fold Change (α2m vs normal) Day 14,[20],5.4
same,Fold Change (α2m vs normal) Day 3,[21],0.3
same,Fold Change (α2m vs normal) Day 7,[21],4.2
same,Fold Change (α2m vs normal) Day 3,[22],0.4
same,Fold Change (α2m vs normal) Day 7,[22],0.2
same,Fold Change (α2m vs normal) Day 14,[22],2.7
same,Fold Change (α2m vs normal) Day 3,[23],0.4
same,Fold Change (α2m vs normal) Day 7,[23],0.3
same,Fold Change (α2m vs normal) Day 3,[24],0.5
same,Fold Change (α2m vs normal) Day 7,[24],4.2
same,Fold Change (α2m vs normal) Day 14,[24],2.0
same,Fold Change (α2m vs normal) Day 3,[25],0.5
same,Fold Change (α2m vs normal) Day 7,[25],0.3
same,Fold Change (α2m vs normal) Day 3,[26],0.5
same,Fold Change (α2m vs normal) Day 7,[26],0.2
same,Fold Change (α2m vs normal) Day 14,[26],2.0
same,Fold Change (α2m vs normal) Day 3,[27],2.4
same,Fold Change (α2m vs normal) Day 7,[27],16.6
same,Fold Change (α2m vs normal) Day 3,[28],0.4
same,Fold Change (α2m vs normal) Day 7,[28],0.3
same,Fold Change (α2m vs normal) Day 3,[29],0.4
same,Fold Change (α2m vs normal) Day 7,[29],4.1
same,Fold Change (α2m vs normal) Day 3,[30],2.4
same,Fold Change (α2m vs normal) Day 7,[30],17.0
same,Fold Change (α2m vs normal) Day 3,[31],2.7
same,Fold Change (α2m vs normal) Day 7,[31],2.0
same,Fold Change (α2m vs normal) Day 3,[32],0.4
same,Fold Change (α2m vs normal) Day 7,[32],2.4
same,Fold Change (α2m vs normal) Day 3,[33],0.5
same,Fold Change (α2m vs normal) Day 7,[33],0.2
same,Fold Change (α2m vs normal) Day 3,gene cadherin 1 (1386947_at),0.4
same,Fold Change (α2m vs normal) Day 7,gene cadherin 1 (1386947_at),9.6
same,Fold Change (α2m vs normal) Day 14,gene cadherin 1 (1386947_at),2.4
same,Fold Change (α2m vs normal) Day 3,[34],0.4
same,Fold Change (α2m vs normal) Day 7,[34],0.1
same,Fold Change (α2m vs normal) Day 14,[34],2.2
same,Fold Change (α2m vs normal) Day 3,[35],6.0
same,Fold Change (α2m vs normal) Day 7,[35],3.6
same,Fold Change (α2m vs normal) Day 3,[36],8.4
same,Fold Change (α2m vs normal) Day 7,[36],2.1
same,Fold Change (α2m vs normal) Day 3,[37],2.2
same,Fold Change (α2m vs normal) Day 7,[37],2.3
same,Fold Change (α2m vs normal) Day 3,gene complement factor B (1389470_at),3.9
